The target in the test is Piromyces ScaA fragment (Piromyces). The test can be described thus: SPR equilibrium analysis.

One may read the Kd as the equilibrium constant for the complex coming apart. Low values mean tighter binding, high ones weaker binding.

As for P. finnis single dockerin domain, the Kd is 0.7 µM. The substance W28F dockerin mutant registered a Kd of 2 µM.
